B1: TSHR Asp232 to Ala, Arg255 to Ala and Trp258 to Ala (receptor)
chain: GMGCSSPPCECHQEEDFRVTCKDIQRIPSLPPSTQTLKLIETHLRTIPSHAFSNLPNISRIYVSIDVTLQQLESHSFYNLSKVTHIEIRNTRNLTYIDPDALKELPLLKFLGIFNTGLKMFPDLTKVYSTDIFFILEITDNPYMTSIPVNAFQGLCNETLTLKLYNNGFTSVQGYAFNGTKLDAVYLNKNKYLTVIDKDAFGGVYSGPSLLAVSQTSVTALPSKGLEHLKELIAANTATLKKLPLSLSFLHLTRADLSYPSHCCAFKNQKKIRGILESLMCNESSMQSLRQRKSVNALNSPLHQEYEENLGDSIVGYKEKSKFQDTHNNAHYYVFFEEQEDEIIGFGQELKNPQEETLQAFDSHYDYTICGDSEDMVCTPKSDEFNPCEDIMGYKFLRIVVWFVSLLALLGNVFVLLILLTSHYKLNVPRFLMCNLAFADFCMGMYLLLIASVDLYTHSEYYNHAIDWQTGPGCNTAGFFTVFASELSVYTLTVITLERWYAITFAMRLDRKIRLRHACAIMVGGWVCCFLLALLPLVGISSYAKVSICLPMDTETPLALAYIVFVLTLNIVAFVIVCCCYVKIYITVRNPQYNPGDKDTKIAKRMAVLIFTDFICMAPISFYALSAILNKPLITVSNSKILLVLFYPLNSCANPFLYAIFTKAFQRDVFILLSKFGICKRQAQAYRGQRVPPKNSTDIQVQKVTHEMRQGLHNMEDVYELIENSHLTPKKQGQISEEYMQTVL
notes: whole, on cells; as m1
B2: TSHR Arg255 to Ala, Lys183 to Ala and Tyr185 to Ala (receptor)
chain: GMGCSSPPCECHQEEDFRVTCKDIQRIPSLPPSTQTLKLIETHLRTIPSHAFSNLPNISRIYVSIDVTLQQLESHSFYNLSKVTHIEIRNTRNLTYIDPDALKELPLLKFLGIFNTGLKMFPDLTKVYSTDIFFILEITDNPYMTSIPVNAFQGLCNETLTLALANNGFTSVQGYAFNGTKLDAVYLNKNKYLTVIDKDAFGGVYSGPSLLDVSQTSVTALPSKGLEHLKELIAANTWTLKKLPLSLSFLHLTRADLSYPSHCCAFKNQKKIRGILESLMCNESSMQSLRQRKSVNALNSPLHQEYEENLGDSIVGYKEKSKFQDTHNNAHYYVFFEEQEDEIIGFGQELKNPQEETLQAFDSHYDYTICGDSEDMVCTPKSDEFNPCEDIMGYKFLRIVVWFVSLLALLGNVFVLLILLTSHYKLNVPRFLMCNLAFADFCMGMYLLLIASVDLYTHSEYYNHAIDWQTGPGCNTAGFFTVFASELSVYTLTVITLERWYAITFAMRLDRKIRLRHACAIMVGGWVCCFLLALLPLVGISSYAKVSICLPMDTETPLALAYIVFVLTLNIVAFVIVCCCYVKIYITVRNPQYNPGDKDTKIAKRMAVLIFTDFICMAPISFYALSAILNKPLITVSNSKILLVLFYPLNSCANPFLYAIFTKAFQRDVFILLSKFGICKRQAQAYRGQRVPPKNSTDIQVQKVTHEMRQGLHNMEDVYELIENSHLTPKKQGQISEEYMQTVL
notes: whole, on cells; as m1
B3: TSHR Trp258 to Ala, Lys183 to Ala and Tyr185 to Ala (receptor)
chain: GMGCSSPPCECHQEEDFRVTCKDIQRIPSLPPSTQTLKLIETHLRTIPSHAFSNLPNISRIYVSIDVTLQQLESHSFYNLSKVTHIEIRNTRNLTYIDPDALKELPLLKFLGIFNTGLKMFPDLTKVYSTDIFFILEITDNPYMTSIPVNAFQGLCNETLTLALANNGFTSVQGYAFNGTKLDAVYLNKNKYLTVIDKDAFGGVYSGPSLLDVSQTSVTALPSKGLEHLKELIARNTATLKKLPLSLSFLHLTRADLSYPSHCCAFKNQKKIRGILESLMCNESSMQSLRQRKSVNALNSPLHQEYEENLGDSIVGYKEKSKFQDTHNNAHYYVFFEEQEDEIIGFGQELKNPQEETLQAFDSHYDYTICGDSEDMVCTPKSDEFNPCEDIMGYKFLRIVVWFVSLLALLGNVFVLLILLTSHYKLNVPRFLMCNLAFADFCMGMYLLLIASVDLYTHSEYYNHAIDWQTGPGCNTAGFFTVFASELSVYTLTVITLERWYAITFAMRLDRKIRLRHACAIMVGGWVCCFLLALLPLVGISSYAKVSICLPMDTETPLALAYIVFVLTLNIVAFVIVCCCYVKIYITVRNPQYNPGDKDTKIAKRMAVLIFTDFICMAPISFYALSAILNKPLITVSNSKILLVLFYPLNSCANPFLYAIFTKAFQRDVFILLSKFGICKRQAQAYRGQRVPPKNSTDIQVQKVTHEMRQGLHNMEDVYELIENSHLTPKKQGQISEEYMQTVL
notes: whole, on cells; as m1
B4: TSHR Arg255 to Ala, Trp258 to Ala and Tyr185 to Ala (receptor)
chain: GMGCSSPPCECHQEEDFRVTCKDIQRIPSLPPSTQTLKLIETHLRTIPSHAFSNLPNISRIYVSIDVTLQQLESHSFYNLSKVTHIEIRNTRNLTYIDPDALKELPLLKFLGIFNTGLKMFPDLTKVYSTDIFFILEITDNPYMTSIPVNAFQGLCNETLTLKLANNGFTSVQGYAFNGTKLDAVYLNKNKYLTVIDKDAFGGVYSGPSLLDVSQTSVTALPSKGLEHLKELIAANTATLKKLPLSLSFLHLTRADLSYPSHCCAFKNQKKIRGILESLMCNESSMQSLRQRKSVNALNSPLHQEYEENLGDSIVGYKEKSKFQDTHNNAHYYVFFEEQEDEIIGFGQELKNPQEETLQAFDSHYDYTICGDSEDMVCTPKSDEFNPCEDIMGYKFLRIVVWFVSLLALLGNVFVLLILLTSHYKLNVPRFLMCNLAFADFCMGMYLLLIASVDLYTHSEYYNHAIDWQTGPGCNTAGFFTVFASELSVYTLTVITLERWYAITFAMRLDRKIRLRHACAIMVGGWVCCFLLALLPLVGISSYAKVSICLPMDTETPLALAYIVFVLTLNIVAFVIVCCCYVKIYITVRNPQYNPGDKDTKIAKRMAVLIFTDFICMAPISFYALSAILNKPLITVSNSKILLVLFYPLNSCANPFLYAIFTKAFQRDVFILLSKFGICKRQAQAYRGQRVPPKNSTDIQVQKVTHEMRQGLHNMEDVYELIENSHLTPKKQGQISEEYMQTVL
notes: whole, on cells; as m1
B5: TSHR Arg255 to Ala, Trp258 to Ala, Tyr185 to Ala and Lys183 to Ala (receptor)
chain: GMGCSSPPCECHQEEDFRVTCKDIQRIPSLPPSTQTLKLIETHLRTIPSHAFSNLPNISRIYVSIDVTLQQLESHSFYNLSKVTHIEIRNTRNLTYIDPDALKELPLLKFLGIFNTGLKMFPDLTKVYSTDIFFILEITDNPYMTSIPVNAFQGLCNETLTLALANNGFTSVQGYAFNGTKLDAVYLNKNKYLTVIDKDAFGGVYSGPSLLDVSQTSVTALPSKGLEHLKELIAANTATLKKLPLSLSFLHLTRADLSYPSHCCAFKNQKKIRGILESLMCNESSMQSLRQRKSVNALNSPLHQEYEENLGDSIVGYKEKSKFQDTHNNAHYYVFFEEQEDEIIGFGQELKNPQEETLQAFDSHYDYTICGDSEDMVCTPKSDEFNPCEDIMGYKFLRIVVWFVSLLALLGNVFVLLILLTSHYKLNVPRFLMCNLAFADFCMGMYLLLIASVDLYTHSEYYNHAIDWQTGPGCNTAGFFTVFASELSVYTLTVITLERWYAITFAMRLDRKIRLRHACAIMVGGWVCCFLLALLPLVGISSYAKVSICLPMDTETPLALAYIVFVLTLNIVAFVIVCCCYVKIYITVRNPQYNPGDKDTKIAKRMAVLIFTDFICMAPISFYALSAILNKPLITVSNSKILLVLFYPLNSCANPFLYAIFTKAFQRDVFILLSKFGICKRQAQAYRGQRVPPKNSTDIQVQKVTHEMRQGLHNMEDVYELIENSHLTPKKQGQISEEYMQTVL
notes: whole, on cells; as m1

Molecular target: porcine TSH (RSR Ltd, 70 units per mg) (porcine, UniProt P01219 25-120; P01224 21-132)
Assay: Scatchard, 125I-ligand, solubilised TSHR on tubes

Row | Binder | binding result
1 | B1 | no binding
2 | B2 | no binding
3 | B3 | no binding
4 | B4 | no binding
5 | B5 | no binding

— patent US9046519 (RSR, dated 2015)
